Results from the supplement of paper PMC9170038.

Tested on: MS2 coat protein
Test: apparent KD of MS2 coat protein; designed switch direction (-1 OFF switch, 1 ON switch): -1; higher = weaker reporter binding
Procedure, shortened: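 For each design, the apparent KD is the median over clusters of curves fitted to normalised cluster fluorescence. Clusters held RNA switches with common flanks, transcribed on Illumina chips by stalled E. coli RNA polymerase. These were titrated with SNAP-549-labelled MS2 coat protein, doubling from 0.7 or 1.5 nM to 3 µM, without input, with 200 uM small-molecule ligand, or with an oligonucleotide input.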

[1] = Eterna round: R95, input ligand: FMN 200 uM
[2] = Eterna round: R95, input ligand: microRNA oligo, concentration not stated
[3] = Eterna round: R95, input ligand: none
[4] = input ligand: microRNA oligo, concentration not stated

Sequence	apparent KD of MS2 coat protein [1] [µM]	apparent KD of MS2 coat protein [2] [µM]	apparent KD of MS2 coat protein [3] [µM]	apparent KD of MS2 coat protein (input ligand: FMN 200 uM) [µM]	apparent KD of MS2 coat protein (input ligand: none) [µM]	apparent KD of MS2 coat protein [4] [µM]
CUGGUCCGAGGAUAUAUUAUGUGAUACAUGAGGAUCACCCAUGUUAUAUGAUGGAUGUAAAUAGAAGGCGGACUAG [JL-ex5-3.15] (puzzle: Exclusion 5)	0.048	0.0434	0.0585			
GGCCCUAAGGUCAGAUCCACAAGCUUUUUGCUCGUUUUAACAUGAGGAUCACCCAUGUCUAGUGGAUCUGAUCCUCA [Sensor v3, turn-off variant 2 (MOD of Indiso v.3)] (puzzle: Sensor v3, turn-off variant 2)	0.0169	0.0121	0.0208			
AUUCAACAUGAGGAUCACCCAUGUGAGGAUAUGCGAGUGUAGACUUCGGUUUGAUAGAGCAGAAGGCGCAGGUA [EX1 #12] (Eterna round: R97, puzzle: Exclusion 1)				0.0359	0.0333	
GCAAAAUAUCAGGAUAUGACUAGCUGCGGCUAGUCAGAAGGGAUGACAUGAGGAUCACCCAUGUGAUCUCGUGU [JR_Ex6_Sub028] (Eterna round: R97, puzzle: Exclusion 6)				0.487	0.177	
UCAUGUCCAGAGGAUAUGUAGCGGGAGACCGCAACAGAAGGCUGGACAUGAGGAUCACCCAUGUGCGCCUUCGA [jl-ex3-4.27 ViennaUCT mod] (Eterna round: R97, puzzle: Exclusion 6)				0.0359	0.113	
GGUUUCGUAGGAUAUCAUCGAGUAAACAUGAGGAUCACCCAUGUGAGGUCGGCUUGCUCUUGAGAAGGAUGAAUGG [EX5 B.13] (Eterna round: R97, puzzle: Exclusion 5)				0.0401	0.034	
GUCAGCUCGUGAGGAUAUGAACAUGAGGAUCACCCAUGUAAGAUCAAGCUGCUUCGGCAGCAAGUUCAGAAGGCACGAGCUGAC [ENG2/10-A1] (Eterna round: R96, puzzle: Exclusion NG 2)				0.221	0.134	0.0858
GCACUGCGAGGAUAUACAUGAGGAUCACCCAUGUAUCGGUAGUCAAGGUUAAUUUAAGGUAGAAGGCGCGUAAA [JR_Ex3_Sub005] (Eterna round: R97, puzzle: Exclusion 3)				0.0274	0.0235	
GGUACUCAAAGAGUACCAAUACGAACAUGAGGAUCACCCAUGUAGGAUAUGCUACUCAAAGAGUAGCAGAAGGACGUGUGCCUU [Far Half Aptamer v4] (Eterna round: R96, puzzle: Exclusion NG 3)						0.0156
GCAGCAACUCUUACUAACUAAACAUGAGGAUCACCCAUGUCUCAGGAUAUGGUCUGGAUUACAGGCCAGAAGGGAGAAAGCUGC [Eli exng3 - 038] (Eterna round: R96, puzzle: Exclusion NG 3)				0.0156	0.0169	0.0112
ACAUGAGGAUCACCCAUGUGCACGUAAUGGCUCAUGUAGAGUCAGGAUAUGCGUGGCGAACUCGCGCAGAAGGGACAAGACUGG [Deportation 20 - Jieux - Exclusion NG 3] (Eterna round: R96, puzzle: Exclusion NG 3)				0.0235	0.0346	0.0256
AAUGGUAAAGUCAGGAUAUACGUAAAUCGUACUAGGUAGAAGGGACAUGAGGAUCACCCAUGUAUGAUAGUAAA [Ex4 #31] (Eterna round: R97, puzzle: Brourd's mod of Exclusion 4)				0.066	0.076	
ACAUGAGGAUCACCCAUGUCCGGCUGGUCUGUUUCGGUUGUCGAGGAUAUAGUUCGGUGUUCGCGCUAGAAGGUGGGAGCUGGC [Aenatbe mod 57] (Eterna round: R96, puzzle: Exclusion NG 3)				0.143	0.175	0.108
AAUUCGCAAGCGAGAUCCCACAUGAGGAUCACCCAUGUGCUCGUCUUAUAAGGUACUGUGACAAAAGUCACGGUACC [Mat - Sensor, turn-off var - Eli Mod - D84] (Eterna round: R97, puzzle: Sensor, turn-off variant 1)				0.0143	0.0132	
AAUAAUAAGGAGGAUAUCGUAUCGGAAACGAUACGAGAAGGUCUAACAUGAGGAUCACCCAUGUUCCUCAAAUA [Mat - Exclusion 6 - Eli Mod - D44] (puzzle: Exclusion 6)		0.0371				
AAGAAGAUAGGAUAUACGAGGAGAGGAGAGAAGAGGUGAGGACAUGAGGAUCACCCAUGUAGAAGGAUCAGGAA [JR_Exclu2_Sub063] (Eterna round: R96, puzzle: Exclusion 2)				0.169	0.109	0.091
UGCCUUUGAGGAUAUACGUAGAAAUAGAUUCAUGUAAAACUACAUGAGGAUCACCCAUGUAGAAGGCAAGGGCU [Mat - Exclusion 2 - JL Mod - D48] (Eterna round: R97, puzzle: Exclusion 2)				0.164	0.024	
AGAUGUAGAUACCGAUCCUACAUGAGGAUCACCCAUGUAGCUAGACGUGCUCGCGUUGCUCGUCAGACUACCAGUAG [salish99_TOv1_r3_088] (puzzle: Sensor v3, turn-off variant 1)	0.279	0.286	0.382			
GACCCUAGGGUCAGACCCACAAGCUUUUUGCUCGUUUUAACAUGAGGAUCACCCAUGUCUAGUGGAUCUGAUCGGGC [Geores] (puzzle: Sensor v3, turn-off variant 2)	0.0184	0.0764	0.0172			
CUGGUGUGAGGAUAUCAGGACACGCCCGAGGGCGUGUCAAAUGAGAAGGCACAUGAGGAUCACCCAUGUGGGAC [Atisrage] (puzzle: Exclusion 4)		0.0398				
GCCUUACAUGAGGAUCACCCAUGUCAGGAUAUGUCAGAGUAGGUAAAACACCACUCUAAUAGAAGGGACAUGCA [Diisarlais] (puzzle: Exclusion 1)		0.0165				
UUAAGCUUUGAGAUCCUUAACAUGAGGAUCACCCAUGUUCGUCUUAUGAUGGUCUGAUCCCUGAGGAUCGGACCGUA [Mat - Sensor v3 - turn-off var 1 - JL Mod - D4] (puzzle: Sensor v3, turn-off variant 1)	0.18	0.0112	0.219			
GUGAAGUGAGGAUAUACGAGAGAGGCUGAACCGGACGAGAAGUAGAAGGCACAUGAGGAUCACCCAUGUAAGGA [JR_Exclu4_Sub022] (puzzle: Exclusion 4)		0.0344				
GAGUGACAUGAGGAUCACCCAUGUGAGGAUAUCGGACGGACCAAAUUAACAAUAAUUGCGAGAAGGCGCAUCGG [Exclusion 1 V15] (puzzle: Exclusion 1)	0.076	0.0516	0.0544			
GGAUAUAACGUAGGAUAUCUGAGAAACAGACGAAGAGAAGGACGACAUGAGGAUCACCCAUGUGAUCUAUCAAUAUUAUACAUG [Prohibition 99 - Jieux - Exclusion NG 1] (Eterna round: R96, puzzle: Exclusion NG 1)				0.412	0.351	0.33
